Measurements: the supplement of paper PMC9732359
± gives the uncertainty stated by the source.

Experiment: protein stability index of a GFP-peptide fusion (yeast GPS) (PSI 1-4); higher = more stable; sorted into four equal gates, so the index is relative within each strain
Method in brief: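 Yeast carrying a pooled library were grown to mid-log phase in leucine-free medium. Each library plasmid expresses Cherry and has a tiled 17-residue yeast protein peptide fused downstream of GFP. Cells were sorted into four equal gates by GFP/Cherry ratio, and plasmids from each gate were PCR-amplified, Illumina-sequenced and assigned to strains by barcode. Summing, across gates, the read frequency times the gate number gave each peptide's protein stability index.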

| Sequence | protein stability index (doa10∆) | protein stability index (pdr5∆) | protein stability index (san1∆) | protein stability index (ubr1∆) |
| --- | --- | --- | --- | --- |
| IKPKPLWSGKQILSVAI [RPO21] | 1.62 ± 0.056 | 1.53 ± 0.047 | 1.4 ± 0.073 | 1.62 ± 0.064 |
| SAIRKCVRVQLIKNGKK [RPS23A] | 2.91 ± 0.081 | 3.02 ± 0.069 | 2.45 ± 0.12 | 3.19 ± 0.095 |
| LSGSISERIVDCIIRLP [FAS1] | 1.35 ± 0.092 | 1.16 ± 0.09 | 1.23 ± 0.27 | 1.85 ± 0.046 |
| AGKADTSIRLEGDELEN [SRB4] | 2.67 ± 0.089 | 2.97 ± 0.12 | 2.91 ± 0.088 | 3.25 ± 0.077 |
| LYGPPGTGKTMLVKAVA [RPT3] | – | 1.17 ± 0.11 | 1.15 ± 0.21 | 1.37 ± 0.14 |
| AIVPGQSISGTLELSAQ [SWP82] | 3.43 ± 0.094 | 3.13 ± 0.11 | 2.98 ± 0.14 | 3.07 ± 0.092 |
| EDGLLEGLDELPKIIQL [SOH1] | 3.11 ± 0.07 | 3.3 ± 0.047 | 3.12 ± 0.044 | 3.15 ± 0.051 |
| QIILDRFAPDNQVTDSS [SIR3] | – | 2.93 ± 0.13 | 2.94 ± 0.14 | 3.11 ± 0.098 |
| GVEQLHYTGISQSACRE [SSN3] | 2.69 ± 0.089 | 2.38 ± 0.085 | 2.66 ± 0.13 | 2.56 ± 0.099 |
| QTKEIKTERVEDQKVVD [RPL6B] | 3.55 ± 0.088 | 3.33 ± 0.11 | 3.48 ± 0.068 | 3.53 ± 0.076 |
| GVDLKLKYSKRRSLKKQ [CSN12] | 2.89 ± 0.074 | 2.75 ± 0.069 | 3.27 ± 0.15 | 3.05 ± 0.036 |
| TELTHHLLPRNEWIKAQ [QCR7] | 2.37 ± 0.068 | 2.16 ± 0.073 | 2.04 ± 0.12 | 1.85 ± 0.046 |
| IDATLKEELLRDGVLTV [RRP45] | 1.8 ± 0.047 | 1.92 ± 0.05 | 2 ± 0.081 | 2.04 ± 0.045 |
| KLYKTPIPIPAFADRLG [PRE10] | 1.5 ± 0.11 | 1.29 ± 0.076 | 1.04 ± 0.18 | 1.46 ± 0.2 |
| RALKVRNAQAQREAAAE [RPS6A] | 3 ± 0.14 | 2.98 ± 0.1 | 2.74 ± 0.074 | 2.94 ± 0.13 |
| SEAKRTKFSNPAIPPVI [BRR2] | 2.13 ± 0.06 | 2.25 ± 0.054 | 2.45 ± 0.067 | 2.44 ± 0.056 |
| NNNNTTTTTTTTNNNNT [SWI1] | 3.07 ± 0.031 | 2.68 ± 0.032 | 3.363 ± 0.023 | 3.128 ± 0.02 |
| SGTPITQTESKKEENET [SNF2] | 2.77 ± 0.052 | 2.59 ± 0.045 | 2.94 ± 0.046 | 2.82 ± 0.036 |
| SAARGLSLVYEIGGSDL [ECM29] | 2.18 ± 0.058 | 1.94 ± 0.065 | 3.33 ± 0.067 | 1.73 ± 0.056 |
| NFAHSDSLSVPKVSAGD [SIR4] | 2.95 ± 0.11 | 2.98 ± 0.12 | 2.76 ± 0.054 | 3.27 ± 0.11 |
| FTVNVLYPDSSSFKKNL [RPN3] | 2.08 ± 0.057 | 2.59 ± 0.067 | 2.55 ± 0.063 | 2.44 ± 0.057 |
| CSHCGCVYVPNFNASLQ [SNM1] | 3.36 ± 0.11 | 2.42 ± 0.11 | 3.13 ± 0.16 | 1.51 ± 0.1 |
| EDSENPSDWQRNSFIRD [ITC1] | 3.1 ± 0.082 | 3.12 ± 0.069 | 3.14 ± 0.065 | 3.27 ± 0.067 |
| LGRLVKAGKITTIEEIF [RPS2] | 2.03 ± 0.099 | 2.29 ± 0.12 | 2.16 ± 0.14 | 2.25 ± 0.12 |
| YPFVTNDDIEWMLSICV [YJR042W/NUP85] | 2.29 ± 0.083 | 2.56 ± 0.061 | 2.67 ± 0.059 | 2.68 ± 0.058 |

| Sequence | protein stability index (doa10∆) | protein stability index (pdr5∆) | protein stability index (san1∆) | protein stability index (ubr1∆) |
| --- | --- | --- | --- | --- |
| FTIDAKPPISDSVFSFG [YLR335W/NUP2] | 3.13 ± 0.054 | 2.75 ± 0.047 | 2.73 ± 0.051 | 2.69 ± 0.042 |
| DEEAAGASTVMKTKTIN [PRP8] | 3.34 ± 0.089 | 3.12 ± 0.071 | 3.28 ± 0.063 | 3.19 ± 0.061 |
| FTLKQWNRLTISVTDTE [COR1] | 1.32 ± 0.049 | 1.22 ± 0.04 | 1.14 ± 0.072 | 1.12 ± 0.047 |
| GVVRYVMESGAKGCEVV [RPS3] | 1.29 ± 0.097 | 1.67 ± 0.1 | – | 1.34 ± 0.086 |
| GVVQMVTDNKTPEMNVT [TAF14] | 2.78 ± 0.16 | 2.67 ± 0.22 | 3.33 ± 0.092 | – |
| IGLVKCTQMTDEGLLNM [GRR1] | 3.01 ± 0.068 | 2.91 ± 0.066 | 2.81 ± 0.057 | 2.91 ± 0.043 |
| IVVMDCFNLPVVGTETR [RRI1] | 2.24 ± 0.13 | 2.66 ± 0.12 | 2.29 ± 0.17 | – |
| NNAKLLTFMTCNSLHIP [ESC2] | 1.71 ± 0.046 | 1.72 ± 0.052 | 1.6 ± 0.079 | 2.06 ± 0.047 |
| VKYMPEQKITEIEDGQD [RPO21] | 3.19 ± 0.12 | 3.12 ± 0.099 | 2.98 ± 0.098 | 3.19 ± 0.069 |
| YQKNKPYPKSRYNRAVP [RPL10] | 2.91 ± 0.045 | 3.06 ± 0.045 | 3.06 ± 0.04 | 2.85 ± 0.038 |
| NSSKPAFSFGAKSNEDK [YJL041W/NSP1] | 3.19 ± 0.1 | 3.13 ± 0.056 | 3.32 ± 0.077 | 3.33 ± 0.068 |
| FNLISNAGTEKEKESKK [YLR335W/NUP2] | 3.41 ± 0.077 | 3.35 ± 0.063 | 3.44 ± 0.044 | 3.45 ± 0.068 |
| FEENDHPNRVLEHLHST [COR1] | 2.96 ± 0.049 | 2.95 ± 0.052 | 3 ± 0.055 | 3.07 ± 0.049 |
| DDSSSDNDSLTDLESLS [SIR4] | 3.15 ± 0.058 | 3.28 ± 0.043 | 3.09 ± 0.044 | 2.95 ± 0.042 |
| LTRFSHDADLEVSMNSI [RPN1] | 3.24 ± 0.099 | 3.14 ± 0.056 | 3.08 ± 0.05 | 3.1 ± 0.037 |
| SESQLNSTLKKVESQET [YCS4] | 2.62 ± 0.18 | 3.4 ± 0.22 | 3.31 ± 0.1 | 3.04 ± 0.29 |
| KLLAKELEEQESESERK [SMC2] | 2.71 ± 0.13 | 3.23 ± 0.089 | 2.46 ± 0.16 | 3.14 ± 0.1 |
| TGRMRYLKHVSRRFKNG [RPL37A] | 2.67 ± 0.059 | 3.25 ± 0.042 | 3.44 ± 0.048 | 3.38 ± 0.047 |
| DFELAVGKVMNKNQETA [RPT6] | 2.37 ± 0.21 | – | – | – |
| LQSDKNFLDNCLFENDL [ITC1] | 2.13 ± 0.079 | 3.03 ± 0.073 | 2.92 ± 0.055 | 3.01 ± 0.059 |
| AFHTAVLRLNAIPLLKV [NUT1] | 1.94 ± 0.059 | 2.43 ± 0.053 | 2.35 ± 0.07 | 1.99 ± 0.05 |
| IRNINVQDALLTNQLYK [SNF2] | 2.84 ± 0.07 | 2.67 ± 0.064 | 3.12 ± 0.05 | 3.24 ± 0.075 |
| PTLFDLAFNYITYDKQE [SRP68] | 2.39 ± 0.064 | 1.72 ± 0.064 | 1.77 ± 0.081 | 1.54 ± 0.059 |
| GLFGNKPNNTANTGGGL [YGL172W/NUP49] | 3.66 ± 0.17 | 3.65 ± 0.13 | 3.49 ± 0.062 | 3.56 ± 0.11 |
| EISASESKFILEALRQN [RRP45] | 2.94 ± 0.096 | 2.98 ± 0.12 | 2.88 ± 0.094 | 2.81 ± 0.074 |
